In the test the target is T1, murine NKG2D on NK cells / splenocytes (mouse, UniProt O54709 1-232).
T1 construct: whole, on cells; also called NKG2D receptor
T1 sequence: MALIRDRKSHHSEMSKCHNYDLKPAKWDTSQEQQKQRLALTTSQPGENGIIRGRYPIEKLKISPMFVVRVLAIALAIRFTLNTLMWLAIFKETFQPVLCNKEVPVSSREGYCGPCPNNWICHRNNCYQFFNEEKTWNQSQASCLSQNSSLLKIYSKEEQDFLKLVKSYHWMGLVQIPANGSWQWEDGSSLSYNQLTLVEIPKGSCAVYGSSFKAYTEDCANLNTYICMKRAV
Description: flow cytometry, fluorescently labeled construct on bulk splenocytes at 37° C. (In general: In flow cytometry, cells or beads pass a laser one at a time.)

B1: OMCP-mutIL-2 (R38A, F42K, C125S IL2-OMCP construct) (other)
chain: HKLAFNFNLEINGSDTHSTVDVYLDDSQIITFDGKDIRPTIPFMIGDEIFLPFYKNVFSEFFSLFRRVPTSTPYEDLTYFYECDYTDNKSTFDQFYLYNGEEYTVKTQEATNKNMWLTTSEFRLKKWFDGEDCIMHLRSLVRKMEDSKRNTGGTGSSGSSDYKDDDDKHHHHHHHHGSSGSSAPTSSSTKKTQLQLEHLLLDLQMILNGINNYKNPKLTAMLTKKFYMPKKATELKHLQCLEEELKPLEEVLNLAQSKNFHLRPRDLISNINVIVLELKGSETTFMCEYADETATIVEFLNRWITFSQSIISTLT
notes: also called OMCP-mutant IL-2; OMCP-IL2 construct
For the molecule B1, the binding result is recorded as “binds”.

The values are drawn from patent US20240092854A1 (WASHINGTON UNIVERSITY, published 2024).
